Measured values: doi:10.1101/264085 (bioRxiv, 2018)
Substitutions are numbered along the chain they refer to.

T1: NDP52(1-126) (human, UniProt Q13137 1-126)
T1 sequence (looked up): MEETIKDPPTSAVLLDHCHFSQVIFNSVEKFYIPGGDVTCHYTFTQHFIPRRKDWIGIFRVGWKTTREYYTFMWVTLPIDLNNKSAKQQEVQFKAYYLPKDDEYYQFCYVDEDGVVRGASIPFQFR

T2: NDP52(1-126) T39E (human, UniProt Q13137 1-126, T39E)
T2 sequence (looked up): T1 sequence (looked up) with T39E

T3: NDP52(10-126) F20Q (human, UniProt Q13137 10-126, F20Q)
T3 sequence (looked up): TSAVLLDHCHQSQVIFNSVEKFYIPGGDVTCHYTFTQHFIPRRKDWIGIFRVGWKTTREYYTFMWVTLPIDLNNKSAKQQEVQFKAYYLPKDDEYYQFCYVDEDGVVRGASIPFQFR

T4: NDP52(10-126) (human, UniProt Q13137 10-126)
T4 sequence (looked up): T3 sequence (looked up) with Q11F

B1: NAP1(1-85) (domain or fragment, human, UniProt Q9H6S1 1-85, looked up)
chain: MDALVEDDICILNHEKAHKRDTVTPVSIYSGDESVASHFALVTAYEDIKKRLKDSEKENSLLKKRIRFLEEKLIARFEEETSSVG
B2: NAP1(33-75) (domain or fragment, human, UniProt Q9H6S1 33-75, looked up)
chain: ESVASHFALVTAYEDIKKRLKDSEKENSLLKKRIRFLEEKLIA
B3: NAP1(1-75) (domain or fragment, human, UniProt Q9H6S1 1-75, looked up)
chain: MDALVEDDICILNHEKAHKRDTVTPVSIYSGDESVASHFALVTAYEDIKKRLKDSEKENSLLKKRIRFLEEKLIA

Assays:
NDP52(1-126) = molecular target: T1, NDP52(1-126); assay: ITC
TAX1BP1(1-121) S25E = TAX1BP1(1-121) S25E (human, UniProt Q86VP1 1-121, S25E); assay: ITC
Chain of TAX1BP1(1-121) S25E (Q86VP1 1-121 S25E): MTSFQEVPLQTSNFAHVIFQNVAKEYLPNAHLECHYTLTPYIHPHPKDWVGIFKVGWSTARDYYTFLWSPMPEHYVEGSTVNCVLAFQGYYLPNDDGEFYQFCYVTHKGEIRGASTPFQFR

NDP52(1-126) T39E = molecular target: T2, NDP52(1-126) T39E; assay: ITC
NDP52(10-126) F20Q = molecular target: T3, NDP52(10-126) F20Q; assay: ITC
TAX1BP1(1-121) = TAX1BP1(1-121) (human, UniProt Q86VP1 1-121); assay: ITC
Chain of TAX1BP1(1-121) (Q86VP1 1-121): as the sequence (Q86VP1 1-121 S25E) above, with E25S counted along it

NDP52(10-126) [1] = molecular target: T4, NDP52(10-126); assay: crystal structure
AUC = molecular target: the molecule itself; assay: AUC
NDP52(10-126) [2] = molecular target: T4, NDP52(10-126); assay: AUC

Row | Binder | Kd (NDP52(1-126)) | binding result (TAX1BP1(1-121) S25E) | binding result (NDP52(1-126) T39E) | binding result (NDP52(10-126) F20Q) | Kd (TAX1BP1(1-121)) | stoichiometry N (NDP52(10-126) [1]) | stoichiometry N (AUC) | stoichiometry N (NDP52(10-126) [2])
1 | B1 | ~1490 nM | – | – | – | – | – | – | –
2 | B2 | ~1150 nM | binds | binds | binds | ~2050 nM | 1 NDP52 chains per NAP1 chain (2:2) | 2 | 2 NDP52(10-126) molecules per NAP1(33-75) dimer
3 | B3 | ~1800 nM | – | – | – | – | – | – | –
